Key:
hASIC1a-ECD [1] = target: T1, hASIC1a-ECD (Homo sapiens, UniProt P78348); assay: Negative stain electron microscopy of hASIC1a-ECD/ASC06-Fab complex; details: negative staining EM
T1 construct: The ectodomain of hASIC1a (hASIC1a-ECD) with an N-terminal fused IL-2 tag and Flag tag; IL-2 tag (N); made in house; host or cells: HEK293F
T1 sequence (P78348 67-427 limits assumed): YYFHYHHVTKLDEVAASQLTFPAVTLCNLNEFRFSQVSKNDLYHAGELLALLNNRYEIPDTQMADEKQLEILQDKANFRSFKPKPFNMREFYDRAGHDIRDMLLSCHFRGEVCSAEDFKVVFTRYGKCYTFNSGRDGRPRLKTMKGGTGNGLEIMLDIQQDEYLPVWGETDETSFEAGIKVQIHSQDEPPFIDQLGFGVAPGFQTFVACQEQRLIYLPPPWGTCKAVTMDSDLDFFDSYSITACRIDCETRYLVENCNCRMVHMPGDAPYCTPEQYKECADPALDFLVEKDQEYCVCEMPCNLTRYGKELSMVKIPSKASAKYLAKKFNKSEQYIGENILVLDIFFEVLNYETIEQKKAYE
Procedure: (§1) Negative Stain Electron Microscopy (EM): (1) Sample Preparation and Data Collection. The antigen-binding fragment of ASC06-IgG1 (ASC06-Fab) was prepared by digesting ASC06-IgG1 with papain followed by protein A affinity purification and gel filtration. The ectodomain of hASIC1a (hASIC1a-ECD) with an N-terminal fused IL-2 tag and Flag tag was expressed in HEK293F cells and purified by anti-Flag M2 magnetic beads and gel filtration using PBS buffer, pH 7.4. The ASC06-Fab and hASIC1a-ECD were incubated at a molar ratio of 3:1 in PBS buffer, pH 7.4, overnight at 4° C. to form a tertiary complex. This complex was further isolated by gel filtration. […] The peak fractions containing this complex were collected and subjected to negative staining EM.
The EM samples were prepared by diluting the purified complex of hASIC1a-ECD and ASC06-Fab to 0.01 mg/mL. […]
All micrographs were recorded with a Tecnai G2 Spirit transmission electron microscope (FEI) equipped with an LaB6 cathode operated at 120 kV and a 4,000×4,000 Eagle CCD camera at a calibrated magnification of 67,000 times, resulting in a pixel size of 1.74 Å.
EMI mage Processing and 3D Reconstruction. […] All of the recorded micrographs were first decimated twofold (resulting in a pixel size of 3.48 Å). […]

hASIC1a-ECD [2] = target: T1, hASIC1a-ECD; assay: Gel filtration of hASIC1a-ECD and ASC06-Fab complex; type: binding; details: Superdex 200
Procedure: as §1
To understand the nature of binding of ASC06 to hASIC1a, a complex was formed by mixing hASIC1a-ECD and ASC06-Fab. The complex, hASIC1a-ECD and ASC06-Fab were resolved using gel filtration.

complex formation with hASIC1a-ECD homotrimer (hASIC1a-ECD [2]): formed a stable complexes
B1: ASC06-Fab: antigen-binding fragment of ASC06-IgG1 prepared by digesting ASC06-IgG1 with papain (antibody, V domains shown)
VH: QVQLQQSGGGLVQPGGSLRLSCAASGFTFSSYAMSWVRQAPGKGLEWVSAISGSGGSTYYADSVKGRFTISRDNSKNTLYLQMNSLRAEDTAVYYCAKDSFYGYSKGDWGQGTLVTVSS
VL: QSALTQPASVSGSPGQSITISCTGTSSDVGAYNYVSWYQQQPGKAPKLMIYGVSNRPSGVSNRFSGSKSGNAASLTISGLQAEDEADYYCSSYTSSSTYVFGTGTKLTVLG
location of epitope (hASIC1a-ECD [1]): located on a surface formed by two hASIC1a-ECD subunits

— patent US12692310B2, “ASIC1 channel antagonist antibody” (ShanghaiTech University, priority 2019, dated 2026)
